According to patent US20030211141A1:

Target: integrin α7β1 on C2C12 murine myoblasts (murine) (UniProt Q61738)
Test: cell-based or functional assay

## human recombinant βIG-H3 (Transforming Growth Factor-β Induced Gene-Human Clone 3 protein), expressed in CHO cells and purified (from UniProt Q15582 1-683) (ligand)
  C2C12 skeletal muscle cell attachment to a βIG-H3 substratum after function-perturbing anti-α7 antibody (% reduction of attachment): 80
